Residue numbers refer to the chain shown, from its start. Like-named read-outs stand apart in the source and are kept apart here. Each block holds one binder with its values, some of them ahead of it.
Assays:
cynomolgus Ang2 [1] = biological target: T1, cynomolgus Ang2 (cynomolgus); test: competition ELISA: cAng2 binding to cTie2
T1 construct: also called cAng2; cyno Ang2
Description: (§1) This assay is also performed after incubation of the VHH with 0.5 μM human serum albumin.

mouse Ang2 [2] = biological target: T2, mouse Ang2 (mouse, UniProt O35608 19-496, limits assumed); test: competition ELISA: mAng2 binding to mTie2
T2 construct: also called mAng2
T2 sequence (looked up): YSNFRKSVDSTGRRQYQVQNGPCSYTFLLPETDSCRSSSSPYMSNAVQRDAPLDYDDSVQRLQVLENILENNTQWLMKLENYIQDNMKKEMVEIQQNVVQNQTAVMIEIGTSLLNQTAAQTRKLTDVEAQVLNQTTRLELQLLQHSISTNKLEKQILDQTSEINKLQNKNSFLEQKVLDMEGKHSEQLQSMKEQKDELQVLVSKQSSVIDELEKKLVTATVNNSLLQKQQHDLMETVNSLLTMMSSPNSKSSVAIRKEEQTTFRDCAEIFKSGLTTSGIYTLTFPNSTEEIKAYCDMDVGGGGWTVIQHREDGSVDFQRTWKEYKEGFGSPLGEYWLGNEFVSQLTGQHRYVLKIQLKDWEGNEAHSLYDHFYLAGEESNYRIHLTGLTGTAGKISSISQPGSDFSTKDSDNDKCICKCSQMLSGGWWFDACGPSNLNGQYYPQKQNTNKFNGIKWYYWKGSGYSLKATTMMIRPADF
Description: as §1

cynomolgus Ang2 [3] = biological target: T1, cynomolgus Ang2; test: competition ELISA: cAng2 binding to cTie2; remark: listed apart in the source
Description: as §1

mouse Ang2 [4] = biological target: T2, mouse Ang2; test: competition ELISA: mAng2 binding to mTie2; remark: listed apart in the source
Description: as §1

mouse Ang2 [5] = biological target: T2, mouse Ang2; test: competition ELISA: mAng2 binding to mTie2; remark: listed apart in the source
human Ang2 [6] = biological target: T3, human Ang2 (human, UniProt O15123 19-496, limits assumed); test: competition ELISA: hAng2 binding to hTie2
T3 construct: also called hAng2; human Angiopoietin2
T3 sequence (looked up): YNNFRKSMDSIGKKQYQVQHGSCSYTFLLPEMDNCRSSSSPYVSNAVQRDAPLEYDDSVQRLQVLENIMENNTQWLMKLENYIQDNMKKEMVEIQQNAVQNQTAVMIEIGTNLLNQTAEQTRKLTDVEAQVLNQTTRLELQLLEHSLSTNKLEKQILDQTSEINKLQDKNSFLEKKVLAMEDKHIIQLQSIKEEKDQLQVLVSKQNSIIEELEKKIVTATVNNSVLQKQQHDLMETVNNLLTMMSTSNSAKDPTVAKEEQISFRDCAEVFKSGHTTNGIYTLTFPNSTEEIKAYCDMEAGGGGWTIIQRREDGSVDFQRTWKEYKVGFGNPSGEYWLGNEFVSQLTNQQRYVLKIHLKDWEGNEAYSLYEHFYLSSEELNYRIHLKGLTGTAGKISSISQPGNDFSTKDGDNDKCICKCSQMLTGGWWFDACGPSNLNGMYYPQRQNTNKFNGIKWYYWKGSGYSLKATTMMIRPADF

cynomolgus Ang2 [7] = biological target: T1, cynomolgus Ang2; test: competition ELISA: cAng2 binding to cTie2; remark: listed apart in the source
human Ang2 [8] = biological target: T3, human Ang2; test: competition ELISA hAng2/hTie2-Fc, with 0.5 uM HSA [continued]
Description: as §1

mouse Ang2 [9] = biological target: T2, mouse Ang2; test: competition ELISA mAng2/mTie2
Description: as §1

human Ang2 [10] = biological target: T3, human Ang2; test: competition ELISA hAng2/hTie2-Fc
Description: as §1

mouse Ang2 [11] = biological target: T2, mouse Ang2; test: competition ELISA: mAng2 binding to mTie2; remark: listed apart in the source
cynomolgus Ang2 [12] = biological target: T1, cynomolgus Ang2; test: competition ELISA: cAng2 binding to cTie2; remark: listed apart in the source
human Ang2 [13] = biological target: T3, human Ang2; test: competition ELISA: hAng2 binding to hTie2; remark: listed apart in the source
[14] = biological target: T4, cynomolgus DLL4, full length, overexpressed on cells (cynomolgus, UniProt Q9NR61 27-685 (human entry)); test: FACS titration on HEK293-cDLL4 cells
T4 construct: also called CHO-cDLL4; cDLL4
T4 chain: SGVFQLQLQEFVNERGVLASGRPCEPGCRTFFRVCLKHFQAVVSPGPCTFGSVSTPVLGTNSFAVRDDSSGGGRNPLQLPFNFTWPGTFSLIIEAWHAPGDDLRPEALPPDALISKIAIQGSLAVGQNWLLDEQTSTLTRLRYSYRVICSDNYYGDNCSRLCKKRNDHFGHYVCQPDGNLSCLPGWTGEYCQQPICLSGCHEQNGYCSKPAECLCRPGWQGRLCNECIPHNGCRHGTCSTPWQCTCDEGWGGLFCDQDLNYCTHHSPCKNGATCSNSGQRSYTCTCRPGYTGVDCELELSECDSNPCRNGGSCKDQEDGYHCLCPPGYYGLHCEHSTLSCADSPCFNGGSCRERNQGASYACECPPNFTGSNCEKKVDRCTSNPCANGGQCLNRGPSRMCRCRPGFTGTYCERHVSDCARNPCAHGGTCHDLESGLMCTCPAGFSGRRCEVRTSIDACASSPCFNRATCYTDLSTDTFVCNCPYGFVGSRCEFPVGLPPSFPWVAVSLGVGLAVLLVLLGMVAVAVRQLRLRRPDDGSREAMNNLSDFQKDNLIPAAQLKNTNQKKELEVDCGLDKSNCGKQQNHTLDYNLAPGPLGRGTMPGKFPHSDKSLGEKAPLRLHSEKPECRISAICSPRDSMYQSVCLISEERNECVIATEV
Description: (§2) In order to determine the cynomologus cross-reactivity of the VHHs, a FACS binding experiment is performed. Cynomolgus DII4 expressing HEK293 cells (transient or stable transfection) are used for a titration binding experiment of the VHHs. After a 30 minutes incubation on ice, all samples are washed and detection is performed by applying anti-c-myc-Alexa647 (Santa Cruz Biotechnology, Santa Cruz, Calif., USA). Human and mouse DII4 overexpressing HEK293 cells are taken as reference. The mean MCF value is determined on the FACS Array and used for calculation of the EC₅₀ value (see FIG. 9).

[15] = biological target: T5, human DLL4, full length, overexpressed on CHO or HEK293 cells (human, UniProt Q9NR61 27-685); test: FACS titration on HEK293-hDLL4 cells
T5 construct: also called CHO-hDLL4; CHO-hDII4
Description: as §2

[16] = biological target: T6, recombinant mouse DLL4 extracellular domain, C-terminally His-tagged (R&D Systems) (mouse, UniProt Q9JI71 27-525); test: binding ELISA on coated rmDLL4
T6 construct: range 1-525; also called rmDLL4; mDLL4; not shown: C-terminal His tag
Description: In order to determine cross-reactivity to mouse DII4 a binding ELISA is performed. […] Wells are blocked with a casein solution (1% in PBS). VHHs are applied as dilution series and binding is detected using a mouse anti-myc (Roche) and an anti-mouse-AP conjugate (Sigma, St Louis, Mo., USA) (FIG. 7).

[17] = biological target: T7, recombinant human DLL4 extracellular domain, C-terminally His-tagged (R&D Systems) (human, UniProt Q9NR61 25-522, biotinylated in the competition assays (sites not given)); test: binding ELISA on coated rhDLL4
T7 construct: also called rhDLL4; hDLL4; not shown: C-terminal His tag

[18] = biological target: T8, recombinant human DLL1 (Alexis) (human, UniProt O00548 18-545, limits assumed); test: rhDLL1/rhJAG1 binding ELISA
T8 construct: also called hDLL1; rhDLL1
T8 sequence (looked up): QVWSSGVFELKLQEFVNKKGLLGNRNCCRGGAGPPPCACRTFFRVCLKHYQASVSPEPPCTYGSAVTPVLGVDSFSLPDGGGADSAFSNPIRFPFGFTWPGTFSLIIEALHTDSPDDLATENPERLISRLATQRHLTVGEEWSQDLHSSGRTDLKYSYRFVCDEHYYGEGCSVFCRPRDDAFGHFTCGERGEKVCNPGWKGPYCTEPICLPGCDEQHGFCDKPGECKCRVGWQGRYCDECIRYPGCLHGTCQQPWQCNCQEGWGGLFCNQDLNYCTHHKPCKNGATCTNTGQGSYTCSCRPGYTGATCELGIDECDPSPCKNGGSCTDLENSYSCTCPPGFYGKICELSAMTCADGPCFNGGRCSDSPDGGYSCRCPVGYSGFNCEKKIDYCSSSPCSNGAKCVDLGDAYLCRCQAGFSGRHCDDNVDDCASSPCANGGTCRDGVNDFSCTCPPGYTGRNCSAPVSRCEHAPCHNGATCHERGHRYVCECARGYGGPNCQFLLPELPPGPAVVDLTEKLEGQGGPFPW

[19] = biological target: T9, recombinant human Jagged-1 (Alexis) (human, UniProt P78504 34-1067, limits assumed); test: rhDLL1/rhJAG1 binding ELISA
T9 construct: also called hJagged-1; hJAG1

[20] = biological target: T10, mouse DLL4, full length, overexpressed on CHO or HEK293 cells (mouse, UniProt Q9JI71 27-686); test: FMAT competition: labelled hNotch1-Fc on CHO-mDLL4 cells
T10 construct: whole, on cells; also called CHO-mDLL4; CHO-mDII4
From the text: (§3) All calculations are based on the FL1_total signal which comprises the average of the fluorescence per well times the number of counts per well.

[21] = biological target: T5, human DLL4, full length, overexpressed …; test: FMAT competition: labelled hNotch1-Fc on CHO-hDLL4 cells
From the text: as §3

T6 sequence (Q9JI71 27-525 limits assumed): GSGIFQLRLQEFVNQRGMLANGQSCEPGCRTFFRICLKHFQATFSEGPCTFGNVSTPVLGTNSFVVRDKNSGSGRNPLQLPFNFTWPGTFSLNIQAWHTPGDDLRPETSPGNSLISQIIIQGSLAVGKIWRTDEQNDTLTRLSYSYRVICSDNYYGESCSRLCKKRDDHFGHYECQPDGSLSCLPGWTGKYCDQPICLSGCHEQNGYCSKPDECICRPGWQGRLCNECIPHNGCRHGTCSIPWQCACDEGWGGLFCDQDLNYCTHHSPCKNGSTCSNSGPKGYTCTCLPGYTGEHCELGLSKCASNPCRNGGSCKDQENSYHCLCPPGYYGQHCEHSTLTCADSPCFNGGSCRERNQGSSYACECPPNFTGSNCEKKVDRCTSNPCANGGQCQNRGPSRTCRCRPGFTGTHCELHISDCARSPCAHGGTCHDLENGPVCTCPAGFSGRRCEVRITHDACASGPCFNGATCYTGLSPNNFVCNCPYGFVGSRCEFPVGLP
T7 sequence (Q9NR61 25-522): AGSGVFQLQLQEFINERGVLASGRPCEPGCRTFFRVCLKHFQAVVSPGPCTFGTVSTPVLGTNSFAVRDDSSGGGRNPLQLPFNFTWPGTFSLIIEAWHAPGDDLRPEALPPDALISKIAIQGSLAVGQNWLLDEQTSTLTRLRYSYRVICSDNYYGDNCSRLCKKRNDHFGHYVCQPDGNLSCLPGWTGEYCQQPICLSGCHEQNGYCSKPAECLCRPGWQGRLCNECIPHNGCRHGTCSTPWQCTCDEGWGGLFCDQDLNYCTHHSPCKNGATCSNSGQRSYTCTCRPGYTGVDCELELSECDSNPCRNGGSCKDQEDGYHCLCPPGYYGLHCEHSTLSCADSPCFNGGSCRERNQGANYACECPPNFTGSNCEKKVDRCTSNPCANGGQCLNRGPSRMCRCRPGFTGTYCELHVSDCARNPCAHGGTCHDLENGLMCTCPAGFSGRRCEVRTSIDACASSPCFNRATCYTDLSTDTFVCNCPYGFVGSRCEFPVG

B1: 00045 (VHH)
VHH: EVQLVESGGGLVQPGGSLRLSCAASGFALDYYAIGWFRQAPGKEREGVSCISSSDGITYYADSVKGRFTISRDNSKNTVYLQMNSLRPEDTAVYYCATDSGGYIDYDCMGLGYDYWGQGTLVTVSS
- IC50 (read off the curve) (cynomolgus Ang2 [1]): ~0.2 nM
- IC50 (read off the curve) (mouse Ang2 [2]): ~0.2 nM

B2: 00042 (VHH)
VHH: EVQLVESGGGLVQPGGSLRLSCAASGFTLDDYAIGWFRQAPGKEREGVSSIRDNDGSTYYADSVKGRFTISSDNSKNTVYLQMNSLRPEDTAVYYCAAVPAGRLRFGEQWYPLYEYDAWGQGTLVTVSS
- IC50 (read off the curve) (cynomolgus Ang2 [1]): ~0.5 nM
- IC50 (read off the curve) (mouse Ang2 [2]): ~1 nM
- IC50 (read off the curve) (cynomolgus Ang2 [3]): ~0.8 nM
- IC50 (read off the curve) (mouse Ang2 [4]): ~2 nM

B3: 00938 (VHH)
VHH: B2 VHH with A24V, F27I, S50A, D53S, N54S, D55G, F106Y, L113I
- IC50 (read off the curve) (mouse Ang2 [5]): ~0.06 nM
- IC50 (read off the curve) (human Ang2 [6]): ~0.04 nM
- IC50 (read off the curve) (cynomolgus Ang2 [7]): ~0.1 nM

B4: 00050 (VHH)
VHH: EVQLVESGGGLVQPGGSLRLSCAASGFTFDDYALGWFRQAPGKEREGVSCIRCSDGSTYYADSVKGRFTISSDNSKNTVYLQMNSLRPEDTAVYYCAASIVPRSKLEPYEYDAWGQGTLVTVSS
- IC50 (read off the curve) (human Ang2 [8]): ~6 nM
- IC50 (read off the curve) (mouse Ang2 [9]): ~9 nM
- IC50 (read off the curve) (human Ang2 [10]): ~6 nM

B5: 00921 (VHH)
VHH: B4 VHH with D55G
- IC50 (read off the curve) (mouse Ang2 [11]): ~30 nM
- IC50 (read off the curve) (cynomolgus Ang2 [12]): ~40 nM
- IC50 (read off the curve) (human Ang2 [13]): ~20 nM

B7: DLLBII133A09 (VHH)
VHH: EVQLVESGGGLVQPGGSLRLSCAASGFTFGSYDMSWVRRSPGKGPEWVSAINSGGGSTYYADYVKGRFTISRDNAKNTLYLQMNSLKPEDTAVYYCAADRYIWARQGEYWGAYAYDYWGQGTQVTVSS
notes: not shown: C-terminal c-myc and His6 tags
- EC50 (read off the curve) [16]: ~0.9 nM
- EC50 (read off the curve) [17]: ~0.7 nM
- binding result [18]: no binding
- binding result [19]: no binding

The remaining lines, values ahead:

- binding result [14]: binds
- EC50 (read off the curve) [15]: ~5 nM
B6: DLLBII56C04 (VHH)
VHH: EVQLVESGGGLVQPGGSLRLSCTASGFTFDVYAIGWFRQAPGKEPEGISCISSSGSITYYADSVKGRFTTSRDSAKNTVYLQMNSLKPEDTAVYYCATPGIAACRGIHYWGQGTQVTVSS
notes: as for B7

- binding result [20]: binds
- binding result [21]: binds
B8: 106H01 (VHH)
VHH: EVQLVESGGGLVQAGGSLRLSCAASGSTFSNYAMGWYRQAPGKQRELVVGISSDGSTHYADSAKGRFTISRDDAKNTVYLQMNSLKTEDTAVYYCYVPVKVAGLEYAYWGQGTQVTVSS
notes: also called DLLBII106H01

From patent US20130078247A1 (Boehringer Ingelheim, published 2013)
